T1: recombinant GST-Rab19 (UniProt A4D1S5 1-217)
T1 sequence (looked up): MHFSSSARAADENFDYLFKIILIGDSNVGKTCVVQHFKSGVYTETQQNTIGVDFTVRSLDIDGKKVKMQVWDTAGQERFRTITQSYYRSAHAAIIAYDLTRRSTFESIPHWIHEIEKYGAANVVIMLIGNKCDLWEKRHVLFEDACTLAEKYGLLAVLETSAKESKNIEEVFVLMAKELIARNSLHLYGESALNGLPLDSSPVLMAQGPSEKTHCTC


Key:
[1] = biological target: recombinant 6His-TTLL12 (Tubulin Tyrosine Ligase-Like 12) (UniProt Q14166); assay: pull-down
recombinant GST-Rab19 = biological target: T1, recombinant GST-Rab19; assay: pull-down

| fold increase in tubulin co-precipitation with Ni-beads when TTLL12 is present [1] | fold increase in TTLL12 binding against the GST-only control (recombinant GST-Rab19) | Molecule |
| --- | --- | --- |
| 3 fold | – | purified porcine brain tubulin (α/β-tubulin heterodimer, kept unpolymerized at 4°C) (from UniProt P02550 1-451; P02554 1-445) (complex) |
| – | ~5 fold | recombinant 6His-TTLL12 (Tubulin Tyrosine Ligase-Like 12) (natural protein, UniProt Q14166 1-644, looked up) MEAERGPERRPAERSSPGQTPEEGAQALAEFAALHGPALRASGVPERYWGRLLHKLEHEVFDAGEVFGIMQVEEVEEEEDEAAREVRKQQPNPGNELCYKVIVTRESGLQAAHPNSIFLIDHAWTCRVEHARQQLQQVPGLLHRMANLMGIEFHGELPSTEAVALVLEEMWKFNQTYQLAHGTAEEKMPVWYIMDEFGSRIQHADVPSFATAPFFYMPQQVAYTLLWPLRDLDTGEEVTRDFAYGETDPLIRKCMLLPWAPTDMLDLSSCTPEPPAEHYQAILEENKEKLPLDINPVVHPHGHIFKVYTDVQQVASSLTHPRFTLTQSEADADILFNFSHFKDYRKLSQERPGVLLNQFPCENLLTVKDCLASIARRAGGPEGPPWLPRTFNLRTELPQFVSYFQQRERWGEDNHWICKPWNLARSLDTHVTKSLHSIIRHRESTPKVVSKYIESPVLFLREDVGKVKFDIRYIVLLRSVRPLRLFVYDVFWLRFSNRAFALNDLDDYEKHFTVMNYDPDVVLKQVHCEEFIPEFEKQYPEFPWTDVQAEIFRAFTELFQVACAKPPPLGLCDYPSSRAMYAVDLMLKWDNGPDGRRVMQPQILEVNFNPDCERACRYHPTFFNDVFSTLFLDQPGGCHVTCLV |
